Test results reported in the DeepSol protein solubility set.

Assay: soluble on expression in E. coli; label from the status in PepcDB or PDB records

In the case of “MEILASRMLLRPADYQRSLSFYRDQIGLAIAREYGAGTVFFAGQSLLELAGYGEPDHSRGPFPGALWLQVRDLEATQTELVSRGVSIAREPRREPWGLHEMHVTDPDGITLIFVEVPEGHPLRTDTRA”, the “soluble on expression in E. coli” value is reported as “soluble”.
In the case of “MGSDKIHHHHHHVKELHESSTIISFKEHTDVNADSILELSFLKLQTKDSCLVKNVGLIRELNNCLLILDSANSNLYVFNKSGAFVNQIGQKGSGPGEYILLSSFFVDNNKNYIAAIDIAQDKVLYYNATDFSFLYERRLPFSTSCCLQLEDGNLLWNSREYTDSKLSDFYFVVTDSLFDIIDYKMNKEFKSGYTTGPSQMIYKVGTNVFAYTPFDLTIYRVGTSEIVPAHSFSFEGTDIPSLDFLNKTSNQGNSNYLYDLIQSDYISYYCVEETERDLFVCYMKNKEKYIGLYDKNTDRTYNYPIKIFQDQLKVGELNYFSIGSVDDYHVAPLDVLSLKDMAGNGYVFDDKLSELLTISNEEDNSILLFVRIKK”, the “soluble on expression in E. coli” value is reported as “not soluble”.
For “MTQDELYMKEAIKEAKKAEEKGEVPIGAVLVINGEIIARAHNLRETEQRSIAHAEMLVIDEACKALGTWRLEGATLYVTLEPCPMCAGAVVLSRVEKVVFGAFDPKGGCSGTLMNLLQEERFNHQAEVVSGVLEEECGGMLSAFFRELRKKKKAARKNLSEMGHHHHHHSH”, the “soluble on expression in E. coli” value was “not soluble”.
In the case of “MQQINFYRQRVAINVLAKDIANAKAIYEAAEGHAVIGVLSAQFATVEEGVPEVKRWMAEVPSISVGLGAGDPAQYYKAAMIAAHTHPAHVNQTFTGSGFAAGALAATGGEQTHINALVSPTGTPGEVVISTGVSSSQGTPARVSCEAAVRMMQDMGAHAAKFFPMGGEKSLPELYALATTAARHGMTLIEPTGGISLDNFGIILQTCLEAGVPRVMPHVYSSIIDPQTGNTRPEDIIRLMEIVKALV”, the “soluble on expression in E. coli” value is reported as “not soluble”.
For “MGKVILVTGVSRGIGKSIVDVLFSLDKDTVVYGVARSEAPLKKLKEKYGDRFFYVVGDITEDSVLKQLVNAAVKGHGKIDSLVANAGVLEPVQNVNEIDVNAWKKLYDINFFSIVSLVGIALPELKKTNGNVVFVSSDACNMYFSSWGAYGSSKAALNHFAMTLANEERQVKAIAVAPGIVDTDMQVNIRENVGPSSMSAEQLKMFRGLKENNQLLDSSVPATVYAKLALHGIPDGVNGQYLSYNDPALADFMP”, the “soluble on expression in E. coli” value was “soluble”.
In the case of “TKDFNWNSTFNIAYNSSDVKYLGIDGTGEKIKRLTLDGANSRVGSVSVQNILGHPYGELVGYEYKRTSDGQVIFENGLPVHSDEVQVLGNGVYKVTGGWRNEFTYKNITLSFLIDFKAGAKMFSGTNLSLYSNGLHKNTLQGRGADGKGTMVGNGVMSDGKGGYVKNTVAVSAQDYWQAITSQNIAEEFVYNASFIKLRELSVGYTLPQAWLNKQTLIKGVTLSLVGRNLWTILKHTDNIDPESAYNNGNAQGLELNGYPATRNVGFNVNVKF”, the “soluble on expression in E. coli” value is reported as “not soluble”.
For “MLSYHTDIPTDLPLLRQAVEAIRREESGGAVPDSDRPRVIYEARNRLYAIRTAQGEQVVKSFRIPIAIQRVVYSFFRPSKAARSYRNAIRLGRCGIGTPRPSGYAIEREKGLLCRSYYVCESMHDCRDIRLSMQGVEGGEALLRALAGFIARMHRAGIHHIDLSPGNVLYRTDEKGEYSFYLIDLNRMKFYDKPIVGRKAYANFARLSFCPAVSKQLAEYYAEAQGLNTDGVVQGVQSESDRFFRSKVRKYARKALVREQKRMSRSAFRRAYIRYRSVRLIRKLTGCTRLFRIENDLYTSYLEVGDLRHTLKRAEGYSSPKNVQ”, the “soluble on expression in E. coli” value was “not soluble”.
With “MLIRPNKVQKVGNLFMDTVHEEEIRLLNQLYDTLMKKDVEKADQLMDELLVDLEDHFTTEEELMREFEFFAYPMHKAEHDTMRKRFKEVYDKWKKEKNPEEVVRFLKEEFVPWLKSHVARWDSTTAQQLGD” the “soluble on expression in E. coli” value was “not soluble”.
For “MVSVSSEPVMPTALKILIAGGFGVGKTTMVGSVSEVPPLETEERMTAVSLGVDDLSGVEGKKSTTVAMDFGRITIAPELVLYLFGTPGQDRFWFMWDDLATGALAAIVLADTRRLDASFASIDFFEARDIPFAVGVNCFDGRRDCSAEQVRTALDLDPSTPVLLCDVRDRGSSKSVLLAVLEAARAQAAARLAPLGGGQLEHHHHHH”, the “soluble on expression in E. coli” value was “not soluble”.
In the case of “MSLLTEVETYVLSIIPSGPLKAEIAQKLEDVFAGKNTDLEALMEWLKTRPILSPLTKGILGFVFTLTVPSERGLQRRRFVQNALNGNGDPNNMDRAVKLYKKLKREITFHGAKEVALSYSTGALASCMGLIYNRMGTVTTEVAFGLVCATCEQIADSQHRSHRQMATITNPLIRHENRMVLASTTAKAMEQMAGSSEQAAEAMEVANQARQMVQAMRTIGTHPNSSAGLRDNLLENLQAYQKRMGVQMQRFK”, the “soluble on expression in E. coli” value is reported as “soluble”.
For “MGSDKIHHHHHHMPTLDPLSLRLFVSVAEAGTIAAAAEREHIAAAAVSKRISEIEATLGVALLRRTNKGVAPTAAGERLVVLAHRALHELDDIAVQMRDYASGVSGLIRLAANVSSVVQFLPREIQAFAAQHPRIQIQLEEKASAGVVKAVADNAVDIGIFTSVPHGYEVQTFPYHRDFLTLVVPGGHTLAQKQAVAFADTLDFEYVGLPPDTAISQQLTRAAHAHARPVNLRIQVTSYDAQCLMIAAGLGLGVMPHAVAQQQAANLGLATVALTDAWAERELLIAVRSLEALPVACRMLVAHLRGA”, the “soluble on expression in E. coli” value was “not soluble”.
With “MQEAVLQLIEVQLAQEEVTESPLGGDENAQLHASGYYALFVDTVPDDVKRLYTEAATSDFAALAQTAHRLKGVFAMLNLVPGKQLCETLEHLIREKDVPGIEKYISDIDSYVKSLL” the “soluble on expression in E. coli” value was “soluble”.
In the case of “MPRGHAGDFPPPALSVRNRPGNSGLVLETCFAQLRSGRKDHGARVRNMTAPRSIVIGGGAFAGLALALALRQGLGPEVPVIVADPALALRPSRDPRATAIVAACRRLFEALGVWDEVAPTAQPIIDMVVTDSHLEDATRPVFLTFAGEVQPGEPFAHMVENRYLVEALAKRAEAEGVELRATPVTSYDARTEAIGVTLGDGSVIDASLLVAADGAKSKLRQRAGIATYGWDYDQSGIVVTVEHERDHNGCAEEHFLPAGPFAILPLTGRRSSLVWSESRRDAERIVALPEKEFQRELEKRFGLRLGDIKPLDKPKSFPLGYFVAQSFIAPRLALIGDAAHVIHPIAGQGLNMGLRDVAALAEVVVDAARLGIDPGQVDVLERYQRWRRFDTVAMGVATNGLNFLFSNNSPLLRGIRDIGLGLVDRLPPLKGAFIRQAAGLTGEIPRLLKGEALLEHHHHHH”, the “soluble on expression in E. coli” value is reported as “soluble”.
For “MGSDKIHHHHHHMSKPDRVVLIGVAGDSGCGKSTFLNRLADLFGTELMTVICLDDYHSLDRKGRKEAGVTALDPRANNFDLMYEQVKALKNGETIMKPIYNHETGLIDPPEKIEPNRIIVIEGLHPLYDERVRELLDFSVYLDIDDEVKIAWKIQRDMAERGHSYEDVLASIEARRPDFKAYIEPQRGHADIVIRVMPTQLIPNDTERKVLRVQLIQREGRDGFEPAYLFDEGSTIQWTPCGRKLTCSYPGIRLAYGPDTYYGHEVSVLEVDGQFENLEEMIYVEGHLSKTDTQYYGELTHLLLQHKDYPGSNNGTGLFQVLTGLKMRAAYERLTSQAAPVAASV”, the “soluble on expression in E. coli” value was “not soluble”.
For “MYKLNLDIQAFLANDWQQAPKVFKGAFPDFEDPIAADELAGLACEEEVSSRVVVTKGNDWEVISGPFEDYDRFGETHWQLLVQAVNHWYPESQPLVEAFRFLPDWRFDDLMVSFATPQGGVGPHIDNYDVFIIQGEGQRRWTVGPKGNYQRRGGVTTSPLIEDFEPIIDVVLEKGDVLYIPPGFPHQGETLTLALSYSMGYRAPSQQELAGQIADQLMDEDKGHKRFIAVDGAASHGTVSLAEQQGIMQLIRDLCNDTDNVVKVLGKLLSQNRFDLDIQEDESIDADALVEALNEGAVLMRIGGLKVLKMEGDSQARLFVAGESVIIEGASEEELIEVSNSVNVNAELAQLPHWQGFFVQMLQKGYFYLGED”, the “soluble on expression in E. coli” value was “soluble”.
With “MNNREIVQKLWNLCNVLRDDGITYHQYVTELTYLLFLKMMKETGQEYIIPEPYRWDVLAKKDGIELKTYYQQLLMALGQEENELLRQIYTDATSNIREPKNLEKIIRTIDALDWYNAKEEGLGALYEGLLEKNASELKSGAGQYFTPRVLIDVIVELVDPKPGERCHDPAAGTFGFMIAASRHVRAKTDDYFDLSEEEIRFQKYEAFSGVELVRDTHRLAVMNALLHDVHGDILLGDTLSPLGEQLKGYDVILTNPPFGTKKGGERATRTDFTFMTSNKQLNFLQHIYRALRPNGKARAAVVVPDNVLFEGGVGADIRRDLMDKCNVHTILRLPTGIFYAQGVKTNVLFFTRGETDTGNTKEVWVYDLRTNMPSFGKRNPLTKDHFAGFMKAYTAEDRHQVDDERWNVFTRDDIAKKGDSLDIGLIADESLSVYDNLPDPIDSAEEAVEKLELAISLLNEVIAELKAAEHPPRYEPAKTEMLHVAERLEVSER” the “soluble on expression in E. coli” value was “not soluble”.
For “MLASLHIANYVLIDRLDIDFAPHFSVITGETGAGKSILLGALGLLVGGRADTSAIAPGTDRCIVEGRFTGFVPEMKAVLDRYDLDFDPDECTIRREISSKGKSRAFVNDTPAPLTALRELADFLIDIHSQHKNLLLGDSLFQLNVLDAYSGKPDLYAHYSKAYRVYAERKQKLEDLRKAAAATASEYDYWQFRFEQLDKAGLESGEEARLQEEQAMLTHALDIKRELGHSYSLLSDDERGLLSGLNKVEDALATIESYYPDSASFRQRVRDVRIELADIASDLGRRSDDVSYEPERLNAVTDRLDEILSLLHRYNADSSDALIAIRDDLAERLSRISTDEEEISRLEQEVLAFYKEIEAQASLLTEERIRAASALETSLCESLRKLNMPHVRFVVDIRSTEYGPHGADKVVFLFSANKQMEPEPVSEIASGGEIARLMLCLKALIADKRSLPAIVFDEIDTGVSGEVADRMGEIMAHMGQGMQVLAITHLPQIAARGERHYFVYKDETGERARTFIRELTPEERIREIARMQSGNNLTDVALAAAKELLAR”, the “soluble on expression in E. coli” value was “not soluble”.
For “MAHHHHHHMGGAHNEGVQDGGAQDATTLYDELYLLFDEYIVRNCKQPNTYESLFCKKEFVQFAKLHGTSVVVTSPKKEIKNKDEIIDELIYAFKLFAKYTSMCDFFSKNEEVDDINTIYLKFLLIPYILGVLCYETISMEIRSDRLKEAKLYFGEFINVVNVYKIAPVEDYLLDEGGEVNQAMNRRNIKVKRAKDEKKLQDFYDDMIKMNVKKGSSQNYNHLCFADHMEEEQIREIYLSLIKCKCLQTLNMMDLIDTEIEVLEMRNRQQVQDKQHQNGKPTQGTKDTHDGQPPHQNKHPKDGIKKPWLFTIKKNMPLADMTQMRNYYRDLVFTPAHNLPTISLEECAKIEMEYALKGEGMAPRSEEERRGNPKSGTIKGAAQNGTDDEEDYEKSSKEESEKELMDREWDDWKDMHQKGIGNKNRNVA”, the “soluble on expression in E. coli” value was “soluble”.
With “MGSDKIHHHHHHMDAPSTTPHDAVFKQFLMHAETARDFLEIHLPVELRELCDLNTLHLESGSFIEESLKGHSTDVLYSVQMQGNPGYLHVVIEHQSKPDKKMAFRMMRYSIAAMHRHLEADHDKLPLVVPILFYQGEATPYPLSMCWFDMFYSPELARRVYNSPFPLVDITITPDDEIMQHRRIAILELLQKHIRQRDLMLLLEQLVTLIDEGYTSGSQLVAMQNYMLQRGHTEQADLFYGVLRDRETGGESMMTLAQWFEEKGIEKGIQQGRQEVSQEFAQRLLSKGMSREDVAEMANLPLAEIDKVINLI” the “soluble on expression in E. coli” value was “not soluble”.
In the case of “MAHHHHHHMKQSDFIFFVLRFWHFVPPYIIEKYAVSAFLNEDFLRAIRLKIEELRPPGRREPHSCVLKEHSDTSFTRKEVLPPPERLSNPVAMDHWVLYEPKVQNFPLVDGFFLVDSNPMTLVGLRMTTAGEHRTTTSTVRQFTECLAAYFNGWEELSRDMSWEIINVQHADSTPINDWQRCDVVDSDNVSRAENREIAAFWEEEVRQYIAAVSSGDF”, the “soluble on expression in E. coli” value is reported as “not soluble”.
With “PQLDEARTNGLMKTLFPHQVLSTIQASRILKTYNGVVIADSTGLGKTRVAINLAVMAINDGRNPLLIAPKSALETTWKDEMDKTHVHIDSKRSEYLSQHPDEAIKEIQGKDFIIVDEAHYFKSPGSNRYSVLRDLMAAGQKQIVLLTATP” the “soluble on expression in E. coli” value was “not soluble”.
